Assay results as given in EP4538294A1 (Shandong Simcere Biopharmaceutical Co., Ltd., dated 2025).

T1: human BCMA on Flp-inCHO-human BCMA cells (human, UniProt Q02223 1-184)
T1 construct: whole, on cells
T1 sequence (looked up): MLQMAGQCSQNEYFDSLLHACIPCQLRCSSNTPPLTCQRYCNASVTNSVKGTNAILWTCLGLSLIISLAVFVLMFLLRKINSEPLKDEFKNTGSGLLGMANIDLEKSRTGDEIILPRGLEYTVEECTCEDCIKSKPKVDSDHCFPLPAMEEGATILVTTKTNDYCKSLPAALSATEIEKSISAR

B1: Tri-59 (trispecific antibody, V domains shown)
VHH: EVQLVESGGGLVQPGGSLRLSCAASESISSIHIMAWYRQAPGKQRELVAGIRNDGSTVYVDSVKGRFTISRDNAKNSLYLQMNSLRAEDTAVYYCNADQGFGSYSEWERRSRWGQGTTVTVSS
VH 1: EVQLVQSGAEVKKPGSSVKVSCKASGYTFTSYGISWVRQAPGQGLEWMGEIYPRSGNTYYNEKFKGRVTLTADKSTSTAYMELSSLRSEDTAVYYCARGRAYGRNYPMDYWGQGTTVTVSS
VL 1: EIVLTQSPATLSLSPGERATLSCRASQSIGTSIHWYQQKPGQSPRLLIKYASESISGIPARFSGSGSGTDFTLTISSLEPEDFAVYYCQQSNSWPYTFGGGTKVEIK
VH 2: EVQLVESGGGVVQPGRSLRLSCAASGFTFTDYYMSWVRQAPGKGLEWVAMSRNKAKGHTIEYSSSVKGRFTISRDNSKNTLYLQMNSLRAEDTAVYYCARDTYESYDGYFDVWGQGTTVTVSS
VL 2: DIVMTQSPDSLAVSLGERATINCKSSQSLFNSRSRKNYLAWYQQKPGQTPKLLIYWASIRESGVPDRFSGSGSGTDFTLTISSLQAEDVAVYYCKQSYYLYTFGQGTKLEIK
B2: Tri-55 (trispecific antibody, V domains shown)
VHH: B1 VHH
VH 1: B1 VH 1
VL 1: B1 VL 1
VH 2: B1 VH 2
VL 2: B1 VL 2
B3: Tri-35 (trispecific antibody, V domains shown)
VHH: EVQLVESGGGLVQPGGSLRLSCSASGFTLDYYMIGWFRQAPGKEREGLSSISPADGSTYYADSVKGRFTISRDSSKNTVYLQMNSLRAEDTAVYYCAAGNEATISWGFGPWEYDYWGQGTMVTVSS
VH 1: B1 VH 1
VL 1: B1 VL 1
VH 2: B1 VH 2
VL 2: B1 VL 2
B4: Tri-49 (trispecific antibody, V domains shown)
VHH: B1 VHH
VH 1: B1 VH 1
VL 1: B1 VL 1
VH 2: B1 VH 2
VL 2: B1 VL 2
B5: Tri-29 (trispecific antibody, V domains shown)
VHH: B3 VHH
VH 1: B1 VH 1
VL 1: B1 VL 1
VH 2: B1 VH 2
VL 2: B1 VL 2
B6: Tri-32 (trispecific antibody, V domains shown)
VHH: B3 VHH
VH 1: B1 VH 1
VL 1: B1 VL 1
VH 2: B1 VH 2
VL 2: B1 VL 2
B7: Tri-41 (trispecific antibody, V domains shown)
VHH: B3 VHH
VH 1: B1 VH 1
VL 1: B1 VL 1
VH 2: B1 VH 2
VL 2: B1 VL 2
B8: REGN5459-anti-BCMA-hIgG1 (antibody, V domains shown)
VH: EVQLVESGGGLVQPGGSLRLSCAASGFTFSNFWMTWVRQAPGKGLEWVANMNQDGSEKYYVDSVKGRFTISRDNAKSSLYLQMNSLRAEDTAVYYCARDREYCISTSCYDDFDYWGQGTLVTVSS
VL: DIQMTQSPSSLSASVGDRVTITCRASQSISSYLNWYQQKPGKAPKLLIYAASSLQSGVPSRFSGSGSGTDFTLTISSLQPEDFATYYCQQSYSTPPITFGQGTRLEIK

Legend:
[1] = target: T2, human CD3 on Jurkat cells and on activated human PBMC (human, UniProt P07766 23-207; P04234 22-171); assay: FACS, Jurkat cells
T2 construct: whole, on cells; Endogenous CD3 of the T cell receptor complex on cells

[2] = target: T2, human CD3 on Jurkat cells and on …; assay: FACS, activated human PBMC
[3] = target: T3, monkey CD3 on activated monkey PBMC (monkey); assay: FACS, activated monkey PBMC
T3 construct: whole, on cells

[4] = target: T4, human GPRC5D on CHOK1-human GPRC5D cells (human, UniProt Q9NZD1 1-345); assay: FACS, CHOK1-human GPRC5D cells
T4 construct: whole, on cells

[5] = target: T1, human BCMA on Flp-inCHO-human BCMA cells; assay: FACS, Flp-inCHO-human BCMA cells
[6] = target: T1, human BCMA on Flp-inCHO-human BCMA cells; assay: FACS, Flp-inCHO-human BCMA cells; remark: listed apart in the source

T3 sequence (Q95LI5 22-198): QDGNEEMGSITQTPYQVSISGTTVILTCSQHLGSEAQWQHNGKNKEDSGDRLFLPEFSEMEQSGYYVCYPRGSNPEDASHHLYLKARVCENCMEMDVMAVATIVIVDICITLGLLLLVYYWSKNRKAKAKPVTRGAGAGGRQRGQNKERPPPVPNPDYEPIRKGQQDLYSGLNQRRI
T4 sequence (Q9NZD1 whole entry): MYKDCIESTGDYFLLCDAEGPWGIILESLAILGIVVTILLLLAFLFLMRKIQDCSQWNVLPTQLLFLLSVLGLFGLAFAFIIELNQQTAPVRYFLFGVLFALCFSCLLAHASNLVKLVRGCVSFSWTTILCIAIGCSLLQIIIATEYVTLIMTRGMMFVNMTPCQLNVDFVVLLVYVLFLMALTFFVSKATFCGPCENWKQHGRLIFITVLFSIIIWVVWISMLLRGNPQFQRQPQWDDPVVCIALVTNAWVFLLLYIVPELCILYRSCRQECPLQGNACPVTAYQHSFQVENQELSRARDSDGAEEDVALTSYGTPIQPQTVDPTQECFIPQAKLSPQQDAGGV
T2 sequence (P07766 23-207, chain 1 of 2): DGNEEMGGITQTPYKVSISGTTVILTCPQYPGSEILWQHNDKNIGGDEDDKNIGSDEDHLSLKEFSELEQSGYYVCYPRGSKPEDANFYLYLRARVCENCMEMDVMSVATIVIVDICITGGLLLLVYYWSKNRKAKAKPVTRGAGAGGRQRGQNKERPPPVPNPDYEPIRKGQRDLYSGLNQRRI
T2 sequence (P04234 22-171, chain 2 of 2): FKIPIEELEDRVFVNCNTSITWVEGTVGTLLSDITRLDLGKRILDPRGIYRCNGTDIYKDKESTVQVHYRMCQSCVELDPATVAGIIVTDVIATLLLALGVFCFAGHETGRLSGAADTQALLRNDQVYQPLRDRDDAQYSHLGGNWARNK

Row | Binder | Maximum mean fluorescence intensity [1] | EC50 [2] | Maximum mean fluorescence intensity [2] | EC50 [3] | Maximum mean fluorescence intensity [3] | EC50 [4] | EC50 [5] | EC50 [1] | binding result [6]
1 | B1 | 1800 | 92.1 nM | 3510 | 249 nM | 5280 | 0.59 nM | 1.21 nM |  | 
2 | B2 | 4690 | 149 nM | 2260 | 159 nM | 2030 | 6.26 nM | 0.92 nM | 179 nM | 
3 | B3 | 320 | 81.4 nM | 2240 |  | 1970 | 1.78 nM | 2.53 nM |  | 
4 | B4 | 795 | 31.8 nM | 1730 | 59.4 nM | 1380 | 2.75 nM | 1.34 nM | 157 nM | 
5 | B5 | 418 | 161 nM | 6730 |  | 5630 | 1.39 nM | 2.27 nM |  | 
6 | B6 | 3120 |  | 1780 |  | 1680 | 3.06 nM | 2.03 nM | 370 nM | 
7 | B7 | 85 |  | 235 |  | 417 | 4.3 nM | 1.52 nM |  | 
8 | B8 |  |  |  |  |  |  |  |  | binds
